The experiment has as its target Bcl-xL (Homo sapiens, UniProt Q07817, DEL46-85). Description: Cell surface display equilibrium binding assay with flow cytometry. The settings on record: cells displaying Bak–eCPX fusions, biotinylated Bcl-xL and SAPE.

From article PMC2913173 (Journal of molecular biology, 2009) come the findings set out here.

eCPX = enhanced circularly permuted OmpX display protein

B1: Bak(24–117): construct containing amino acids 24–117 of Bak (helices α1 to α4), eCPX fusion (protein)
chain: EEQVAQDTEEVFRSYVFYRHQQEQEAEGVAAPADPEMVTLPLQPSSTMGQVGRQLAIIGDDINRRYDSEFQTMLQHLQPTAENAYEYFTKIATS
modifications: left off: eCPX (enhanced circularly permuted OmpX display protein), C-terminal, kept
In the case of B1, the “Binding to Bcl-xL in words (fluorescence of cell population)” value is “essentially no binding to Bcl-xL”.

B2: Bak(24–89): eCPX fusion protein comprising helices α1, α2, and α3 of Bak (protein)
chain: EEQVAQDTEEVFRSYVFYRHQQEQEAEGVAAPADPEMVTLPLQPSSTMGQVGRQLAIIGDDINRRY-eCPX
As to B2, the “Binding to Bcl-xL in words (fluorescence of cell population)” value was “fluorescence only slightly above background levels”.
